The record followed here is patent US20040132067, “Systematic evolution of ligands by exponential enrichment: photoselection of nucleic acid ligands and solution selex” (SOMALOGIC, INC., published 2004).

The target in series [1] is T1, HIV-1 Rev (Human immunodeficiency virus 1, UniProt P04618 P04618:1-116). The experiment in a line: photocrosslinking 325 nm, 4 min, 500 nM protein, 20 ug tRNA, 37 C. The source says:
The sequences are aligned for maximum homology to the 6a sequence (SEQ ID NO:5). Underlines represent potential base pairing as indicted by computer RNA folding algorithms. Dashed underlines represent the 6a ligand “bubble” motif. Sequences flanked by underline represent either loop or bulge regions. Dashes are placed to maximize alignment with 6a. * denotes that two isolates were obtained. +indicates laser independent crosslinking and—denotes the lack of laser independent crosslinking to HIV-1 Rev. […] FIGS. 18 and 19 show the sequence of Trunc2 (SEQ ID NO:58) and Trunc24 (SEQ-ID NO:59) and the specificity results. 500 nM protein, 20 μg tRNA, and approximately 1 nM of kinased trunc2 RNA were incubated for 10 min. at 37° C. and irradiated for 4 min at 325 nm. t2-trunc2 RNA irradiated without added protein; t2Rev1/O′-trunc2 RNA, HIV-1 Rev protein and 0 min. of irradiation; t2/Rev1/4′-trunc2 RNA, HIV-1 Rev protein, adn 4 min. of irradiation; t2/Rev1/4′/PK-trunc2 RNA, HIV-1 Rev protein, 4 min. or irradiation, and proteinase K treated as in FIG. 1; t2/Rev2/4′-trunc2 RNA, HIV-2 Rev protein, and 4 min. of irradiation; t2/Tat/4′-trunc2 RNA, HIV-1 Tat protein, and 4 min. of irradiation. R-free RNA; XL-crosslinked nucleoprotein complex.

Series [2] has as its target T1, HIV-1 Rev. Kind of series: photo-independent crosslinking seen at 50 nM Rev in 1:100 weight ratio with human nuclear extract. Here is the method: Trunc24 (SEQ ID NO:59) photo-independent crosslinking with HIV-1 Rev in the presence of human nuclear extracts was determined as follows: Trunc24 RNA, nuclear extracts, and Rev protein were combined and incubated on ice for 10 min. Samples were mixed 1:1 with 8 M urea loading buffer and placed on a 7 M urea, 8% polyacrylamide gel for analysis, XL indicates the nucleoprotein complex, RNA indicates free trunc24 RNA.

T1 sequence (P04618 whole entry, one chain of several): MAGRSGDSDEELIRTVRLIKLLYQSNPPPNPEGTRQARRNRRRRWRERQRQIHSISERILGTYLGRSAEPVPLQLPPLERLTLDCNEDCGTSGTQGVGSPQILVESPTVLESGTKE

B1: trunc2 (ssRNA)
RNA: GGGUGUAUGAAACACCACGUGUGUUUCCACUC
modifications: 5-iodouracil at all U
In the case of B1, in the series with HIV-1 Rev [1], the binding result was “binds”.

B2: trunc24 (ssRNA)
RNA: GGGGAUUAACAGGCACACCUGUUAACCCU
In the case of B2, the binding result with HIV-1 Rev [2] was “binds”.
